Assay results taken from PMC4283134, “Nup98 FG domains from diverse species spontaneously phase-separate into particles with nuclear pore-like permselectivity” (eLife, 2015).

What was measured:
[1] = target: Dictyostelium discoideum Nup220 FG domain (Dictyostelium discoideum); experiment: dynamic light scattering; FG domain diluted from stocks in 2 M GuHCl into TBS (50 mM Tris/HCl pH 7.5, 150 mM NaCl) to 10-0.06 µM; critical concentration of phase separation from the lowest concentration with particles, refined by the monomers that co-exist with particles
[2] = target: Saccharomyces cerevisiae Nup100 FG domain (residues 2-580, purified) (S. cerevisiae) (UniProt Q02629); experiment: partitioning into FG particles (confocal laser-scanning microscopy); FG particles formed from 5 or 10 µM purified FG domain (with labelled tracer) by dilution from GuHCl into TBS; 1 µM fluorescent NTR or NTR⋅cargo complex or 3 µM passive probe added; images about 2-3 min later
[3] = target: Saccharomyces cerevisiae Nup100 FG domain (residues 1-580, FG bodies formed in E. coli) (S. cerevisiae) (UniProt Q02629); experiment: partitioning into FG bodies or inclusion bodies (confocal laser-scanning microscopy); crude FG bodies or actin inclusion bodies from E. coli, washed twice in TBS; 1 µM Impβ•IBB-GFP and MBP-mCherry added
[4] = target: Saccharomyces cerevisiae Nup116 FG domain (residues 1-736, FG bodies formed in E. coli) (S. cerevisiae) (UniProt Q02630); experiment: as above
[5] = target: Tetrahymena thermophila macronuclear MacNup98A FG domain (Tetrahymena thermophila); experiment: dynamic light scattering; FG domain diluted from stocks in 2 M GuHCl into TBS (50 mM Tris/HCl pH 7.5, 150 mM NaCl) to 10-0.06 µM; critical concentration of phase separation from the lowest concentration with particles, refined by the monomers that co-exist with particles
[6] = target: Trypanosoma brucei Nup158 FG domain (Trypanosoma brucei); experiment: as above
[7] = target: Branchiostoma floridae Nup98 FG domain (Branchiostoma floridae); experiment: as above
[8] = target: Branchiostoma floridae Nup98 FG domain, O-GlcNAc modified (Branchiostoma floridae); experiment: as above
[9] = target: the molecule itself; experiment: as above
[10] = target: T1, human Importin β (human, UniProt Q14974 1-876); experiment: pull-down; His-tagged FG domains (30 µg each) immobilised on 30 µl PEG-passivated Ni(II) chelate beads; 1 µM untagged human Importin β (400 µl), 2 hr at 4°C; 25 mM Tris/HCl pH 7.5, 100 mM NaCl, 1 mM MgCl2, 0.5% PEG4000, 5 mM DTT; SDS-PAGE/Coomassie; details: both partners purified
T1 construct: Importin β, human; also called HsImpβ; pICH005; source: E. coli (BLR or NEB Express), purified (native Ni(II) chelate chromatography, tag removed); not shown: His14, N-terminal, cleaved; scSUMO, N-terminal, cleaved
T1 sequence (Q14974 whole entry, the tested form may be a part): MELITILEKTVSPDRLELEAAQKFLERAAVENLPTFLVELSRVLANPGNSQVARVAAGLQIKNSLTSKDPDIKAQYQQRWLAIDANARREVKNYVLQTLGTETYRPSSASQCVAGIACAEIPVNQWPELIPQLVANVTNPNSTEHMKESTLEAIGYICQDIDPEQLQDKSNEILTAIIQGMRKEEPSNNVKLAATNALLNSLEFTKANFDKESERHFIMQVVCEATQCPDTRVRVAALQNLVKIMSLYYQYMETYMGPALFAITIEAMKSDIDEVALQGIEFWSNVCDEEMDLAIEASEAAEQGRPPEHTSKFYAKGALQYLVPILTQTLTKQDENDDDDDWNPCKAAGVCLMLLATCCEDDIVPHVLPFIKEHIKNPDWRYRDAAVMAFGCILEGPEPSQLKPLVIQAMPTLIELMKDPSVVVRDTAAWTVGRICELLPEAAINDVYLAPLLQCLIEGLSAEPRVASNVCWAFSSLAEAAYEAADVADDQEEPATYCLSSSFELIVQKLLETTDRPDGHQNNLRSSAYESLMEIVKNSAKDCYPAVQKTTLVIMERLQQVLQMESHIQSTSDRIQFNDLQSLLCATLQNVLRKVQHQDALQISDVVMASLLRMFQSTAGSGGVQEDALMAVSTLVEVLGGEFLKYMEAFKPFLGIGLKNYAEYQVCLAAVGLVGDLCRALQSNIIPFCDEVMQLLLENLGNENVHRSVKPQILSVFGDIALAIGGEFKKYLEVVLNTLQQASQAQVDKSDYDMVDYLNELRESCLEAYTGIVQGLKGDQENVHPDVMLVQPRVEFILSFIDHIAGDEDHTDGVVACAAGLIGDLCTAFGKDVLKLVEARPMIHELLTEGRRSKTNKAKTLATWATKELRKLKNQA

Molecule | estimated critical concentration for phase separation (FG domain) [9] | binding result [10] | also measured
Dictyostelium discoideum Nup220 FG domain (domain or fragment) |  |  | estimated critical concentration for phase separation (FG domain) [1]: 125 nM
Importin β⋅IBB-GFP complex (from UniProt Q06142 1-861; Q02821 2-63) |  |  | particle:buffer partition coefficient [2]: 220; particle:buffer partition coefficient [3]: 200; particle:buffer partition coefficient [4]: 200
Tetrahymena thermophila macronuclear MacNup98A FG domain (domain or fragment) |  |  | estimated critical concentration for phase separation (FG domain) [5]: 25 nM
Trypanosoma brucei Nup158 FG domain (domain or fragment) |  |  | estimated critical concentration for phase separation (FG domain) [6]: 300 nM
MBP-mCherry fusion |  |  | particle:buffer partition coefficient [2]: < 0.1
Branchiostoma floridae Nup98 FG domain (domain or fragment) |  |  | estimated critical concentration for phase separation (FG domain) [7]: 20 nM
Branchiostoma floridae Nup98 FG domain, O-GlcNAc modified (domain or fragment) |  |  | estimated critical concentration for phase separation (FG domain) [8]: 150 nM
Saccharomyces cerevisiae Nup100 FG domain (residues 2-580, purified) (domain or fragment, S. cerevisiae, Nup100 FG domain, S. cerevisiae, residues 2-580; engineered C-terminal cysteine; In particle assays a few percent of the molecules carried a label (Atto390, Atto488 or Alexa488); also called ScNup100 FG; ScNup100; source: E. coli (BLR or NEB Express), purified (Ni(II) chelate, denaturing conditions); not shown: His18, N-terminal, kept) FGNNRPMFGGSNLSFGSNTSSFGGQQSQQPNSLFGNSNNNNNSTSNNAQSGFGGFTSAAGSNSNSLFGNNNTQNNGAFGQSMGATQNSPFGSLNSSNASNGNTFGGSSSMGSFGGNTNNAFNNNSNSTNSPFGFNKPNTGGTLFGSQNNNSAGTSSLFGGQSTSTTGTFGNTGSSFGTGLNGNGSNIFGAGNNSQSNTTGSLFGNQQSSAFGTNNQQGSLFGQQSQNTNNAFGNQNQLGGSSFGSKPVGSGSLFGQSNNTLGNTTNNRNGLFGQMNSSNQGSSNSGLFGQNSMNSSTQGVFGQNNNQMQINGNNNNSLFGKANTFSNSASGGLFGQNNQQQGSGLFGQNSQTSGSSGLFGQNNQKQPNTFTQSNTGIGLFGQNNNQQQQSTGLFGAKPAGTTGSLFGGNSSTQPNSLFGTTNVPTSNTQSQQGNSLFGATKLTNMPFGGNPTANQSGSGNSLFGTKPASTTGSLFGNNTASTTVPSTNGLFGNNANNSTSTTNTGLFGAKPDSQSKPALGGGLFGNSNSNSSTIGQNKPVFGGTTQNTGLFGATGTNSSAVGSTGKLFGQNNNTLNVGTC | ~175 nM | binds | 
Arabidopsis thaliana Nup98B FG domain (domain or fragment, Nup98B FG domain, Arabidopsis thaliana, residues 1-668; engineered C-terminal cysteine; In particle assays a few percent of the molecules carried a fluorescent tracer label; also called AtNup98B FG; AtNup98B; source: E. coli (BLR or NEB Express), purified (Ni(II) chelate, denaturing conditions); not shown: His14 (with TEV site), N-terminal, kept) MFGSSNNNPFGQSSISSPFGTQTHSLFGQTNNNASNNPFATKPFGTSTPFGAQTGSSMFGGTSTGVFGAPQTSSPFGASPQAFGSSTQAFGASSTPSFGSSNSPFGGTSTFGQKSFGLSTPQSSPFGSTTQQSQPAFGNSTFGSSTPFGASTTPAFGASSTPAFGVSNTSGFGATNTPGFGATNTTGFGGSSTPGFGASSTPAFGSTNTPAFGASSTPLFGSSSSPAFGASPAPAFGSSGNAFGNNTFSSGGAFGSSSTPTFGASNTSAFGASSSPSFNFGSSPAFGQSTSAFGSSSFGSTQSSLGSTPSPFGAQGAQASTSTFGGQSTIGGQQGGSRVIPYAPTTDTASGTESKSERLQSISAMPAHKGKNMEELRWEDYQRGDKGGQRSTGQSPEGAGFGVTNSQPSIFSTSPAFSQTPVNPTNPFSQTTPTSNTNFSPSFSQPTTPSFGQPTTPSFRSTVSNTTSVFGSSSSLTTNTSQPLGSSIFGSTPAHGSTPGFSIGGFNNSQSSPLFGSNPSFAQNTTPAFSQTSPLFGQNTTPALGQSSSVFGQNTNPALVQSNTFSTPSTGFGNTFSSSSSLTTSISPFGQITPAVTPFQSAQPTQPLGAFGFNNFGQTQIANTTDIAGAMGTFSQGNFKQQPALGNSAVMQPTPVTNPFGTLPALPQC | ~25 nM | binds | 
Drosophila melanogaster Nup98 FG domain (domain or fragment, Nup98 FG domain, Drosophila melanogaster, residues 1-580; engineered C-terminal cysteine; In particle assays a few percent of the molecules carried a fluorescent tracer label; also called DmNup98 FG; DmNup98; source: E. coli (BLR or NEB Express), purified (Ni(II) chelate, denaturing conditions); not shown: His18, N-terminal, kept) MFGGAKPSFGATPAATSFGGFSGTTTTTPFGQSAFGKPAAPAFGNTSTFAAQPAQQSLFGAAATPAQPAGGLFGANTSTGFGSTATAQPTAFGAFSQPQQTSNIFGSTQTAASTSLFGQSTLPAFGAAKPTMTAFGQTAAAQPTGSLFGQPAAATSTTGFGGFGTSAPTTTNVFGSGTASAFAQPQATAVGASGVNTGTAVAKYQPTIGTDTLMKSGQANSVNTKQHCITAMKEFEGKSLEELRLEDYMCGRKGPQAGNAPGAFGFGAQVTQPAQPASGGLFGSTAQPSTGLFGQTVTENKSMFGTTAFGQQPATNNAFGAATQQNNFLQKPFGATTTTPFAAPAADASNPFGAKPAFGQGGSLFGQAPATSAAPAFGQTNTGFGGFGTTAGATQQSTLFGATPAADPNKSAFGLGTAASAATTGFGFGAPATSTAGGGLFGNKPATSFAAPTFGATSTASTPFSNFGLNTSTAATGGGLFNSGLNKPATSGFGGFGATSAAPLNFNAGNTGGSLFGNTAKPGGGLFGGGTTTLGGTGAAPTGGLFGGGTTSFGGVGGSLGGGGFGMGTNNSLTGGIMGAC | ~200 nM | binds | 
Homo sapiens Nup98 FG domain (domain or fragment, human, Nup98 FG domain, human, residues 1-499; engineered C-terminal cysteine; In particle assays a few percent of the molecules carried a fluorescent tracer label; also called HsNup98 FG; HsNup98; source: E. coli (BLR or NEB Express), purified (Ni(II) chelate, denaturing conditions); not shown: His18, N-terminal, kept) MFNKSFGTPFGGGTGGFGTTSTFGQNTGFGTTSGGAFGTSAFGSSNNTGGLFGNSQTKPGGLFGTSSFSQPATSTSTGFGFGTSTGTANTLFGTASTGTSLFSSQNNAFAQNKPTGFGNFGTSTSSGGLFGTTNTTSNPFGSTSGSLFGPSSFTAAPTGTTIKFNPPTGTDTMVKAGVSTNISTKHQCITAMKEYESKSLEELRLEDYQANRKGPQNQVGAGTTTGLFGSSPATSSATGLFSSSTTNSGFAYGQNKTAFGTSTTGFGTNPGGLFGQQNQQTTSLFSKPFGQATTTQNTGFSFGNTSTIGQPSTNTMGLFGVTQASQPGGLFGTATNTSTGTAFGTGTGLFGQTNTGFGAVGSTLFGNNKLTTFGSSTTSAPSFGTTSGGLFGNKPTLTLGTNTNTSNFGFGTNTSGNSIFGSKPAPGTLGTGLGAGFGTALGAGQASLFGNNQPKIGGPLGTGAFGAPGFNTTTATLGFGAPQAPVALTDPNASAAQQAC | ~25 nM | binds | 
Caenorhabditis elegans NPP-10/Nup98 FG domain (domain or fragment, NPP-10/Nup98 FG domain, Caenorhabditis elegans, residues 1-493; engineered C-terminal cysteine; In particle assays a few percent of the molecules carried a fluorescent tracer label; also called CeNup98 FG; CeNup98; source: E. coli (BLR or NEB Express), purified (Ni(II) chelate, denaturing conditions); not shown: His18, N-terminal, kept) MFGQNKSFGSSSFGGGSSGSGLFGQNNQNNQNKGLFGQPANNSGTTGLFGAAQNKPAGSIFGAASNTSSIFGSPQQPQNNQSSLFGGGQNNANRSIFGSTSSAAPASSSLFGNNANNTGTSSIFGSNNNAPSGGGLFGASTVSGTTVKFEPPISSDTMMRNGTTQTISTKHMCISAMSKYDGKSIEELRVEDYIANRKAPGTGTTSTGGGLFGASNTTNQAGSSGLFGSSNAQQKTSLFGGASTSSPFGGNTSTANTGSSLFGNNNANTSAASGSLFGAKPAGSSLFGSTATTGASTFGQTTGSSLFGNQQPQTNTGGSLFGNTQNQNQSGSLFGNTGTTGTGLFGQAQQQPQQQSSGFSFGGAPAATNAFGQPAAANTGGSLFGNTSTANTGSSLFGAKPATSTGFTFGATQPTTTNAFGSTNTGGGLFGNNAAKPGGLFGNTTNTGTGGGLFGSQPQASSGGLFGSNTQATQPLNTGFGNLAQPQIVMQQQC | ~700 nM | binds | 
Saccharomyces cerevisiae Nup116 FG domain without the GLEBS domain (domain or fragment, S. cerevisiae, Nup116 FG domain, S. cerevisiae, residues 2-109 joined to 167-715 (GLEBS domain deleted); engineered C-terminal cysteine; In particle assays a few percent of the molecules carried a fluorescent tracer label; also called ScNup116_(ΔGLEBS) FG; ScNup116; source: E. coli (BLR or NEB Express), purified (Ni(II) chelate, denaturing conditions); not shown: His18, N-terminal, kept) FGVSRGAFPSATTQPFGSTGSTFGGQQQQQQPVANTSAFGLSQQTNTTQAPAFGNFGNQTSNSPFGMSGSTTANGTPFGQSQLTNNNASGSIFGGMGNNTALSAGSASFGTSQNGTGTTFNNPQGTTNTGFGIMGNNNSTTSATTGGLFGQKPATGMFGTGTGSGGGFGSGATNSTGLFGSSTNLSGNSAFGANKPATSGGLFGNTTNNPTNGTNNTGLFGQQNSNTNGGLFGQQQNSFGANNVSNGGAFGQVNRGAFPQQQTQQGSGGIFGQSNANANGGAFGQQQGTGALFGAKPASGGLFGQSAGSKAFGMNTNPTGTTGGLFGQTNQQQSGGGLFGQQQNSNAGGLFGQNNQSQNQSGLFGQQNSSNAFGQPQQQGGLFGSKPAGGLFGQQQGASTFASGNAQNNSIFGQNNQQQQSTGGLFGQQNNQSQSQPGGLFGQTNQNNNQPFGQNGLQQPQQNNSLFGAKPTGFGNTSLFSNSTTNQSNGISGNNLQQQSGGLFQNKQQPASGGLFGSKPSNTVGGGLFGNNQVANQNNPASTSGGLFGSKPATGSLFGGTNSTAPNASSGGIFGSNNASNTAATTNSTGLFGNKPVGAGASTSAGGLFGNNNNSSLNNSNGSTGLFGSNNTSQSTNAGGLFQNNTSTNTSGGGLFSC | ~700 nM |  | 
